Measurements: the Human Domainome abundance scans (Beltran et al. 2025)
± gives the uncertainty stated by the source.

B1: Zinc finger homeobox protein 4, residues 2086 to 2141; numbered along this chain, Q86UP3 (parent)
chain: RPRTRITDDQLKILRAYFDINNSPSEEQIQEMAEKSGLSQKVIKHWFRNTLFKERQ

Variants of: B1
Experiment: abundance fitness (aPCA) (normalised: wild type 0, dead -1); higher = more abundant; growth selection in yeast, the domain comes from the species named
Settings: Homo sapiens

In order of rising abundance fitness:
1. RPRCRITDDQLKILRAYFDINNSPSEEQIQEMAEKSGLSQKVIKHWFRNTLFKERQ [T4C]  -0.965 ± 0.24
2. RPRTRIWDDQLKILRAYFDINNSPSEEQIQEMAEKSGLSQKVIKHWFRNTLFKERQ [T7W]  -0.774 ± 0.38
3. RPRTRIYDDQLKILRAYFDINNSPSEEQIQEMAEKSGLSQKVIKHWFRNTLFKERQ [T7Y]  -0.491 ± 0.093
4. RPRTRIQDDQLKILRAYFDINNSPSEEQIQEMAEKSGLSQKVIKHWFRNTLFKERQ [T7Q]  -0.42 ± 0.17
5. RPRRRITDDQLKILRAYFDINNSPSEEQIQEMAEKSGLSQKVIKHWFRNTLFKERQ [T4R]  -0.413 ± 0.076
6. RPRTRIFDDQLKILRAYFDINNSPSEEQIQEMAEKSGLSQKVIKHWFRNTLFKERQ [T7F]  -0.352 ± 0.1
7. RPRTRIKDDQLKILRAYFDINNSPSEEQIQEMAEKSGLSQKVIKHWFRNTLFKERQ [T7K]  -0.344 ± 0.23
8. RPRTRIHDDQLKILRAYFDINNSPSEEQIQEMAEKSGLSQKVIKHWFRNTLFKERQ [T7H]  -0.344 ± 0.096
9. RPRTRICDDQLKILRAYFDINNSPSEEQIQEMAEKSGLSQKVIKHWFRNTLFKERQ [T7C]  -0.337 ± 0.14
10. RPRKRITDDQLKILRAYFDINNSPSEEQIQEMAEKSGLSQKVIKHWFRNTLFKERQ [T4K]  -0.329 ± 0.15
11. RPRTRIIDDQLKILRAYFDINNSPSEEQIQEMAEKSGLSQKVIKHWFRNTLFKERQ [T7I]  -0.288 ± 0.081
12. RPRQRITDDQLKILRAYFDINNSPSEEQIQEMAEKSGLSQKVIKHWFRNTLFKERQ [T4Q]  -0.284 ± 0.13
13. RPRTRILDDQLKILRAYFDINNSPSEEQIQEMAEKSGLSQKVIKHWFRNTLFKERQ [T7L]  -0.271 ± 0.079
14. RPRARITDDQLKILRAYFDINNSPSEEQIQEMAEKSGLSQKVIKHWFRNTLFKERQ [T4A]  -0.271 ± 0.084
15. RPRTRIPDDQLKILRAYFDINNSPSEEQIQEMAEKSGLSQKVIKHWFRNTLFKERQ [T7P]  -0.241 ± 0.1
16. RPRTRIVDDQLKILRAYFDINNSPSEEQIQEMAEKSGLSQKVIKHWFRNTLFKERQ [T7V]  -0.217 ± 0.1
17. RPRSRITDDQLKILRAYFDINNSPSEEQIQEMAEKSGLSQKVIKHWFRNTLFKERQ [T4S]  -0.198 ± 0.077
18. RPRTWITDDQLKILRAYFDINNSPSEEQIQEMAEKSGLSQKVIKHWFRNTLFKERQ [R5W]  -0.184 ± 0.1
19. RPRPRITDDQLKILRAYFDINNSPSEEQIQEMAEKSGLSQKVIKHWFRNTLFKERQ [T4P]  -0.139 ± 0.12
20. RPRTRISDDQLKILRAYFDINNSPSEEQIQEMAEKSGLSQKVIKHWFRNTLFKERQ [T7S]  -0.125 ± 0.083
21. RPRVRITDDQLKILRAYFDINNSPSEEQIQEMAEKSGLSQKVIKHWFRNTLFKERQ [T4V]  -0.116 ± 0.078
22. RPRERITDDQLKILRAYFDINNSPSEEQIQEMAEKSGLSQKVIKHWFRNTLFKERQ [T4E]  -0.096 ± 0.11
23. RPRTRIRDDQLKILRAYFDINNSPSEEQIQEMAEKSGLSQKVIKHWFRNTLFKERQ [T7R]  -0.054 ± 0.12
24. RPRIRITDDQLKILRAYFDINNSPSEEQIQEMAEKSGLSQKVIKHWFRNTLFKERQ [T4I]  -0.048 ± 0.11
25. RPRTRINDDQLKILRAYFDINNSPSEEQIQEMAEKSGLSQKVIKHWFRNTLFKERQ [T7N]  -0.038 ± 0.092
26. RPRTGITDDQLKILRAYFDINNSPSEEQIQEMAEKSGLSQKVIKHWFRNTLFKERQ [R5G]  -0.037 ± 0.069
27. RPRLRITDDQLKILRAYFDINNSPSEEQIQEMAEKSGLSQKVIKHWFRNTLFKERQ [T4L]  -0.011 ± 0.081
28. RPRHRITDDQLKILRAYFDINNSPSEEQIQEMAEKSGLSQKVIKHWFRNTLFKERQ [T4H]  0.01 ± 0.17
29. RPRTRIADDQLKILRAYFDINNSPSEEQIQEMAEKSGLSQKVIKHWFRNTLFKERQ [T7A]  0.02 ± 0.12
30. RPRTVITDDQLKILRAYFDINNSPSEEQIQEMAEKSGLSQKVIKHWFRNTLFKERQ [R5V]  0.022 ± 0.067
31. RPRTRIMDDQLKILRAYFDINNSPSEEQIQEMAEKSGLSQKVIKHWFRNTLFKERQ [T7M]  0.038 ± 0.12
32. RPRTFITDDQLKILRAYFDINNSPSEEQIQEMAEKSGLSQKVIKHWFRNTLFKERQ [R5F]  0.058 ± 0.075
33. RPRTIITDDQLKILRAYFDINNSPSEEQIQEMAEKSGLSQKVIKHWFRNTLFKERQ [R5I]  0.067 ± 0.072
34. RPRTRIEDDQLKILRAYFDINNSPSEEQIQEMAEKSGLSQKVIKHWFRNTLFKERQ [T7E]  0.082 ± 0.19
35. RPRTYITDDQLKILRAYFDINNSPSEEQIQEMAEKSGLSQKVIKHWFRNTLFKERQ [R5Y]  0.082 ± 0.073
36. RPRNRITDDQLKILRAYFDINNSPSEEQIQEMAEKSGLSQKVIKHWFRNTLFKERQ [T4N]  0.123 ± 0.13
37. RPRTCITDDQLKILRAYFDINNSPSEEQIQEMAEKSGLSQKVIKHWFRNTLFKERQ [R5C]  0.136 ± 0.08
38. RPRTMITDDQLKILRAYFDINNSPSEEQIQEMAEKSGLSQKVIKHWFRNTLFKERQ [R5M]  0.16 ± 0.094
39. RPRTEITDDQLKILRAYFDINNSPSEEQIQEMAEKSGLSQKVIKHWFRNTLFKERQ [R5E]  0.163 ± 0.11
40. RPRTPITDDQLKILRAYFDINNSPSEEQIQEMAEKSGLSQKVIKHWFRNTLFKERQ [R5P]  0.172 ± 0.072
41. RPRTRIDDDQLKILRAYFDINNSPSEEQIQEMAEKSGLSQKVIKHWFRNTLFKERQ [T7D]  0.174 ± 0.14
42. RPRTTITDDQLKILRAYFDINNSPSEEQIQEMAEKSGLSQKVIKHWFRNTLFKERQ [R5T]  0.182 ± 0.068
43. RPRTQITDDQLKILRAYFDINNSPSEEQIQEMAEKSGLSQKVIKHWFRNTLFKERQ [R5Q]  0.183 ± 0.084
44. RPRTNITDDQLKILRAYFDINNSPSEEQIQEMAEKSGLSQKVIKHWFRNTLFKERQ [R5N]  0.184 ± 0.076
45. RPRTKITDDQLKILRAYFDINNSPSEEQIQEMAEKSGLSQKVIKHWFRNTLFKERQ [R5K]  0.191 ± 0.1
46. RPRTDITDDQLKILRAYFDINNSPSEEQIQEMAEKSGLSQKVIKHWFRNTLFKERQ [R5D]  0.198 ± 0.081
47. RPRTLITDDQLKILRAYFDINNSPSEEQIQEMAEKSGLSQKVIKHWFRNTLFKERQ [R5L]  0.207 ± 0.066
